This passage reports stoichiometry N (per FapF trimer) and stoichiometry N results from publication PMC7305028.

Read-outs that look alike come from different tables or passages of the source.

What all share (assay): native MS
The target of assay [1] is FapF.
Assay [2] addresses FapF. The source holds these as a separate data set.
Assay [3] concerns the target FapF. The source holds these as a separate data set.

Broadly, the stoichiometry N is the number of molecules, sites or subunits per partner or assembly.

For the substance FapE (natural protein), the stoichiometry N (per FapF trimer) with FapF [1] was 1.

FapC (natural protein) showed a stoichiometry N (per FapF trimer) with FapF [1] of 1.

As for FapF (natural protein), the stoichiometry N with FapF [2], in the assay with FapF [1] and in the assay with FapF [3] was 3 each time.

Regarding FapD (natural protein), the stoichiometry N (per FapF trimer) with FapF [1] stood at 1.
